Measurements as given in article PMC12865202.

Biological target: Chicken CapZ (full length α/β) (chicken) (UniProt P13127)
Test: ITC

## RavB (full length, purified) (natural protein)
  Kd: 10.8 nM
